Data as given in patent publication US20200325187A1 (Genentech, published 2020).
Read-outs that look alike come from different tables or passages of the source.

Legend:
LRP6 E1E2 protein = target: T1, LRP6 E1E2 protein (human, UniProt O75581 20-630, limits assumed); assay: spot phage ELISA
T1 construct: domain: E1E2
T1 sequence (looked up): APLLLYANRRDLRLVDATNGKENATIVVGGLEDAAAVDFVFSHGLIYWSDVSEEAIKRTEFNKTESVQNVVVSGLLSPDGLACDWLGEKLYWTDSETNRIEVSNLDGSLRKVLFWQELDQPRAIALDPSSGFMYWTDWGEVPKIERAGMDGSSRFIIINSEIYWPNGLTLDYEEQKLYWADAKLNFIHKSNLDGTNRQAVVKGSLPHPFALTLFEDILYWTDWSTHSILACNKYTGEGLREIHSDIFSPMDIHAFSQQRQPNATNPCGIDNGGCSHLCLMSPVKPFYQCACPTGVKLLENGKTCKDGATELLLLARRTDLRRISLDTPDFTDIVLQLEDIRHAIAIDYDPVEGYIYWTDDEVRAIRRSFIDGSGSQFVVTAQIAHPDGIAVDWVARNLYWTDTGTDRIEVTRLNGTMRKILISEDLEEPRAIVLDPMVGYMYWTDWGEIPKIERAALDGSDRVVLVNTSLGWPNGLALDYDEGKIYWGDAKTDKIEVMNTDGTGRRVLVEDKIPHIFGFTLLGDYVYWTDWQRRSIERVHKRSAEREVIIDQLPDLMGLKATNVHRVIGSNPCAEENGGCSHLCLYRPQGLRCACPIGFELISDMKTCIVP

hVEGF-A (8-109) [1] = target: T2, hVEGF-A (8-109) (human, UniProt P15692 214-315); assay: spot phage ELISA
T2 sequence (looked up): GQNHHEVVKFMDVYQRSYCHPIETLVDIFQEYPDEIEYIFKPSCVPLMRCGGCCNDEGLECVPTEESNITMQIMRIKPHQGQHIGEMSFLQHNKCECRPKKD
Experimental: (§1) After four rounds of binding selection, individual phage clones were picked and inoculated into 450 μl 2YT media containing 50 µg/ml Carbenecillin and M13-KO7 helper phage in 96-well blocks, which were grown at 37° C. overnight. […] The plates were washed and bound phage was detected with anti-M13-HRP followed by TMB substrate. In these assays, phage binding to BSA alone was tested in parallel to assess background binding. […] Positive clones were subjected to DNA sequence analysis.

hVEGF-A (8-109) [2] = target: T2, hVEGF-A (8-109); assay: spot phage ELISA; remark: listed apart in the source
Experimental: as §1

hVEGF-A = hVEGF-A (human, UniProt P15692-4 27-191, limits assumed); assay: cell-based or functional assay
hVEGF-A (8-109) [3] = target: T2, hVEGF-A (8-109); assay: spot phage ELISA; remark: listed apart in the source
Experimental: as §1

GCVNSVKRCKQDSDCLAGCVCSRGVNCG (designed binder) [LRP6_CKP13]
ELISA (LRP6 E1E2 protein): 3.28
S/N vs BSA (LRP6 E1E2 protein): 37.8

GCSRNSIKCKQDSDCLAGCVCASGSSCG (designed binder) [LRP6_CKP16]
ELISA (LRP6 E1E2 protein): 3.36
S/N vs BSA (LRP6 E1E2 protein): 31.1

GCKNPLFNWALYCKQDSDCLAGCVCQLFDSCG (designed binder) [VEGF_CKP7.8]
ELISA (hVEGF-A (8-109) [1]): 0.5
S/N vs BSA (hVEGF-A (8-109) [1]): 7.5

GCNRIRNSCKQDSDCLAGCVCGRGDYCG (designed binder) [LRP6_CKP15]
ELISA (LRP6 E1E2 protein): 2.03
S/N vs BSA (LRP6 E1E2 protein): 26.3

GCQLLEPMWGCKQDSDCLAGCVCHWYNSCG (designed binder) [VEGF_CKP9.9]
ELISA (hVEGF-A (8-109) [2]): 1.1
S/N vs BSA (hVEGF-A (8-109) [2]): 19.7

GCLDRTLNWALYCKQDSDCLAGCVCQMYNSCG (designed binder) [VEGF_CKP7.54]
ELISA (hVEGF-A (8-109) [1]): 0.5
S/N vs BSA (hVEGF-A (8-109) [1]): 9.3

GCLDPSFDWALYCKQDSDCLAGCVCQLYNSCG (designed binder) [LRP6_CKP7.89]
ELISA (hVEGF-A (8-109) [1]): 0.5
S/N vs BSA (hVEGF-A (8-109) [1]): 8.1

GCNIMLPFWGCGRDFECMQTCICQYYQSCG (designed binder) [VEGF_CKP9.54.90.25]
Cellular IC50 (hVEGF-A): 1.26 nM
FOLD [..] [..] TO VARIANT 9.54.90 (hVEGF-A): 1.07 fold

GCGSNKIRPRCKQDSDCLAGCVCGPNDFCG (designed binder) [LRP6_CKP14]
ELISA (LRP6 E1E2 protein): 3.18
S/N vs BSA (LRP6 E1E2 protein): 43.5

GCQDPTVNWAVYCKQDSDCLAGCVCQFYQSCG (designed binder) [VEGF_CKP7.17]
ELISA (hVEGF-A (8-109) [1]): 0.8
S/N vs BSA (hVEGF-A (8-109) [1]): 13.4

GCEDPTVDWAQYCKQDSDCLAGCVCQMYQSCG (designed binder) [VEGF_CKP7.46]
ELISA (hVEGF-A (8-109) [1]): 0.3
S/N vs BSA (hVEGF-A (8-109) [1]): 4.9

GCQDPTFNWAEYCKQDSDCLAGCVCQMYQSCG (designed binder) [VEGF_CKP7.35]
ELISA (hVEGF-A (8-109) [1]): 0.6
S/N vs BSA (hVEGF-A (8-109) [1]): 10.6

GCQDPSLNWADYCKQDSDCLAGCVCQMHQSCG (designed binder) [VEGF_CKP7.50]
ELISA (hVEGF-A (8-109) [1]): 0.8
S/N vs BSA (hVEGF-A (8-109) [1]): 14.3

GCQDPTFNWAEYCKQDSDCLAGCVCQLYQSCG (designed binder) [VEGF_CKP7.19]
ELISA (hVEGF-A (8-109) [1]): 0.6
S/N vs BSA (hVEGF-A (8-109) [1]): 11.1

GCLDPSFNWSLYCKQDSDCLAGCVCQMYDSCG (designed binder) [VEGF_CKP7.57]
ELISA (hVEGF-A (8-109) [1]): 1
S/N vs BSA (hVEGF-A (8-109) [1]): 17.4

GCQDPTLNWATYCKQDSDCLAGCVCQMYQSCG (designed binder) [VEGF_CKP7.43]
ELISA (hVEGF-A (8-109) [1]): 0.5
S/N vs BSA (hVEGF-A (8-109) [1]): 6.3

GCWDPTFNWALYCKQDSDCLAGCVCQMYDSCG (designed binder) [VEGF_CKP7.24]
ELISA (hVEGF-A (8-109) [1]): 0.8
S/N vs BSA (hVEGF-A (8-109) [1]): 13.4

GCSNYVKRCKQDSDCLAGCVCSPGGRCG (designed binder) [LRP6_CKP17]
ELISA (LRP6 E1E2 protein): 3.09
S/N vs BSA (LRP6 E1E2 protein): 35.9

GCANRVKRTSCKQDSDCLAGCVCGPNGFCG (designed binder) [LRP6_CKP22]
ELISA (LRP6 E1E2 protein): 3.43
S/N vs BSA (LRP6 E1E2 protein): 42.9

GCLDPTVNWALFCKQDSDCLAGCVCQHYKTCG (designed binder) [VEGF_CKP7.81]
ELISA (hVEGF-A (8-109) [1]): 1.1
S/N vs BSA (hVEGF-A (8-109) [1]): 18.6

GCKDTTFNWGLFCKQDSDCLAGCVCQLYQSCG (designed binder) [VEGF_CKP7.78]
ELISA (hVEGF-A (8-109) [1]): 0.7
S/N vs BSA (hVEGF-A (8-109) [1]): 11.8

GCDRMQPYWGCKQDSDCLAGCVCQWYKSCG (designed binder) [VEGF_CKP9.11]
ELISA (hVEGF-A (8-109) [2]): 1.1
S/N vs BSA (hVEGF-A (8-109) [2]): 14.1

GCNPMLPLWGCKQDSDCLAGCVCHWYQSCG (designed binder) [VEGF_CKP9.L1.78]
ELISA (hVEGF-A (8-109) [3]): 3
S/N vs BSA (hVEGF-A (8-109) [3]): 25.1

GCKLLQPMWGCKQDSDCLAGCVCRWYQSCG (designed binder) [VEGF_CKP9.14]
ELISA (hVEGF-A (8-109) [2]): 2
S/N vs BSA (hVEGF-A (8-109) [2]): 30.1

GCHLLLPLWGCKQDSDCLAGCVCRWYHSCG (designed binder) [VEGF_CKP9.76]
ELISA (hVEGF-A (8-109) [2]): 1.3
S/N vs BSA (hVEGF-A (8-109) [2]): 15.5

GCDIMQPLWGCKQDSDCLAGCVCHWYQSCG (designed binder) [VEGF_CKP9.L1.68]
ELISA (hVEGF-A (8-109) [3]): 2
S/N vs BSA (hVEGF-A (8-109) [3]): 23.2

GCKIMQPLWGCKQDSDCLAGCVCLWYDSCG (designed binder) [VEGF_CKP9.47]
ELISA (hVEGF-A (8-109) [2]): 1
S/N vs BSA (hVEGF-A (8-109) [2]): 14.6

GCDLMQPLWGCKQDSDCLAGCVCHWYQSCG (designed binder) [VEGF_CKP9.L1.76]
ELISA (hVEGF-A (8-109) [3]): 2.5
S/N vs BSA (hVEGF-A (8-109) [3]): 17.4

GCQVMRPFWGCKQDSDCLAGCVCHWYQSCG (designed binder) [VEGF_CKP9.L1.7]
ELISA (hVEGF-A (8-109) [3]): 1.5
S/N vs BSA (hVEGF-A (8-109) [3]): 8.9

GCRLLEPSWGCKQDSDCLAGCVCQWYQSCG (designed binder) [VEGF_CKP9.72]
ELISA (hVEGF-A (8-109) [2]): 0.6
S/N vs BSA (hVEGF-A (8-109) [2]): 10

GCQLLQPLWGCKQDSDCLAGCVCRWYQSCG (designed binder) [VEGF_CKP9.71]
ELISA (hVEGF-A (8-109) [2]): 1
S/N vs BSA (hVEGF-A (8-109) [2]): 16.5

GCNVLLPLWGCKQDSDCLAGCVCHWYQSCG (designed binder) [VEGF_CKP9.L1.64]
ELISA (hVEGF-A (8-109) [3]): 2.3
S/N vs BSA (hVEGF-A (8-109) [3]): 19.9

GCHLFEPLWGCKQDSDCLAGCVCHWYQSCG (designed binder) [VEGF_CKP9.L1.2]
ELISA (hVEGF-A (8-109) [3]): 1.6
S/N vs BSA (hVEGF-A (8-109) [3]): 12.5

GCALLQPLWGCKQDSDCLAGCVCRWYNSCG (designed binder) [VEGF_CKP9.69]
ELISA (hVEGF-A (8-109) [2]): 1
S/N vs BSA (hVEGF-A (8-109) [2]): 14.3

GCNLMHPFWGCKQDSDCLAGCVCHWYQSCG (designed binder) [VEGF_CKP9.51]
ELISA (hVEGF-A (8-109) [2]): 1
S/N vs BSA (hVEGF-A (8-109) [2]): 11

GCHRLQPLWGCKQDSDCLAGCVCHWYQSCG (designed binder) [VEGF_CKP9.L1.19]
ELISA (hVEGF-A (8-109) [3]): 1.4
S/N vs BSA (hVEGF-A (8-109) [3]): 11.6

GCQVMQPAWGCKQDSDCLAGCVCHWYQSCG (designed binder) [VEGF_CKP9.L1.8]
ELISA (hVEGF-A (8-109) [3]): 1.2
S/N vs BSA (hVEGF-A (8-109) [3]): 12.8

GCNPMLPFWGCKQDSDCLAGCVCHWYQSCG (designed binder) [VEGF_CKP9.L1.57]
ELISA (hVEGF-A (8-109) [3]): 3.7
S/N vs BSA (hVEGF-A (8-109) [3]): 31.8

GCQVLQPSWGCKQDSDCLAGCVCHWYQSCG (designed binder) [VEGF_CKP9.L1.79]
ELISA (hVEGF-A (8-109) [3]): 1.2
S/N vs BSA (hVEGF-A (8-109) [3]): 10

GCGNKIRACKQDSDCLAGCVCRDRVGCG (designed binder) [LRP6_CKP21]
ELISA (LRP6 E1E2 protein): 2.8
S/N vs BSA (LRP6 E1E2 protein): 33.7

GCDDPSFDWSVYCKQDSDCLAGCVCRMYDSCG (designed binder) [VEGF_CKP7.2]
ELISA (hVEGF-A (8-109) [1]): 1.2
S/N vs BSA (hVEGF-A (8-109) [1]): 21.5

GCQDPKLNWAVYCKQDSDCLAGCVCQLFNSCG (designed binder) [VEGF_CKP7.88]
ELISA (hVEGF-A (8-109) [1]): 0.5
S/N vs BSA (hVEGF-A (8-109) [1]): 7.7

GCENRTKGCKQDSDCLAGCVCGFRGTCG (designed binder) [LRP6_CKP20]
ELISA (LRP6 E1E2 protein): 3.1
S/N vs BSA (LRP6 E1E2 protein): 38.7

GCRSNKLREARGCKQDSDCLAGCVCGSRQDCG (designed binder) [LRP6_CKP12]
ELISA (LRP6 E1E2 protein): 0.6
S/N vs BSA (LRP6 E1E2 protein): 6.78

GCRDLTINWALFCKQDSDCLAGCVCQMFNSCG (designed binder) [VEGF_CKP7.73]
ELISA (hVEGF-A (8-109) [1]): 1.2
S/N vs BSA (hVEGF-A (8-109) [1]): 19.2
